The labels stand for the following.
B1: Azoarcus group I ribozyme (parent)
chain: GUGCCUUGCGCCGGGAAACCACGCAAGGGAUGGUGUCAAAUUCGGCGAAACCUAAGCGCCCGCCCGGGCGUAUGGCAACGCCGAGCCAAGCUUCGGCGCCUGCGCCGAUGAAGGUGUAGAGACUAGACGGCACCCACCUAAGGCAAACGCUAUGGUGAAGGCAUAGUCCAGGGAGUGGCGAAAGUCACACAAACCGG

The variants in the series derive from B1. Description: reverse-splicing fitness (ratio to wild type); higher = more active; in vitro selection; Mg2+ level not given. The gist of the method: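 An in vitro group I ribozyme library with randomized positions was T7-transcribed and gel-purified. In triplicate, 10 pmol RNA in EPPS pH 7.5 was reacted with 50 pmoles of a 30-nt RNA substrate for 1 h at 37 °C across several added MgCl2 levels (1–48 mM), then stopped with EDTA. Products were reverse transcribed from a substrate-complementary primer, PCR-amplified and sequenced (HiSeq 4000). Fitness is a variant's read proportion after selection over that before, normalised to wild type.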
GUGCCUUGCGCCGGGAAACCACGCAAGGGAUGGUGUCAAAUUCGGCGAAACCUAAGCGCCCGCCCGGGCGUAUGGCAACGCGGAGCCAAGCUUCGGCGCCUGCGCCGAUGCAGGUGUAGGGACUAGACGGCACCCACCUAAGGCUAACGGUAUGGUGAAGGCAUAGUCGAGGGAGUGGCGAAAGUCACACAAACCGG [C82G A111C A120G A145U C150G C169G]: the reverse-splicing fitness stood at 0.00781.

Turning to GUGCCUUGCGCCGGGAAACCACGCAAGGGAUGGUGUCAAAUUCGGCGAAACCUAAGCGCCCGCCCGGGCGUAUGGCAACGCGGAGCCAAGCUUCGGCGCCUGCGCCGAUGCAGGUGUAGGGACUAGACGGCACCCACCUAAGGCUAACGGUAUGGUGAAGGCAUAGUCUAGGGAGUGGCGAAAGUCACACAAACCGG [C82G A111C A120G A145U C150G C169U], the reverse-splicing fitness was found to be 0.0085.

In the case of GUGCCUUGCGCCGGGAAACCACGCAAGGGAUGGUGUCAAAUUCGGCGAAACCUAAGCGCCCGCCCGGGCGUAUGGCAACGCGGAGCCAAGCUUCGGCGCCUGCGCCGAUGCAGGUGUAGGGACUAGACGGCACCCACCUAAGGCUAACGGUAUGGUGAAGGCAUAGUCAAGGGAGUGGCGAAAGUCACACAAACCGG [C82G A111C A120G A145U C150G C169A], the reverse-splicing fitness was found to be 0.00965.

For GUGCCUUGCGCCGGGAAACCACGCAAGGGAUGGUGUCAAAUUCGGCGAAACCUAAGCGCCCGCCCGGGCGUAUGGCAACGCGGAGCCAAGCUUCGGCGCCUGCGCCGAUGCAGGUGUAGGGACUAGACGGCACCCACCUAAGGCUAACGGUAUGGUGAAGGCAUAGUCAAGGGAGCGGCGAAAGUCACACAAACCGG [C82G A111C A120G A145U C150G C169A U176C], the reverse-splicing fitness was 0.0101.

For GUGCCUUGCGCCGGGAAACCACGCAAGGGAUGGUGUCAAAUUCGGCGAAACCUAAGCGCCCGCCCGGGCGUAUGGCAACGCGGAGCCAAGCUUCGGCGCCUGCGCCGAUGCAGGUGUAGGGACUAGACGGCACCCACCUAAGGCUAACGGUAUGGUGAAGGCAUAGUCAAGGGAGGGGCGAAAGUCACACAAACCGG [C82G A111C A120G A145U C150G C169A U176G], the reverse-splicing fitness stood at 0.00496.

For GUGCCUUGCGCCGGGAAACCACGCAAGGGAUGGUGUCAAAUUCGGCGAAACCUAAGCGCCCGCCCGGGCGUAUGGCAACGCGGAGCCAAGCUUCGGCGCCUGCGCCGAUGCAGGUGUAGGGACUAGACGGCACCCACCUAAGGCUAACGGUAUGGUGAAGGCAUAGUCAAGGGAGAGGCGAAAGUCACACAAACCGG [C82G A111C A120G A145U C150G C169A U176A], the reverse-splicing fitness was 0.00957.

For GUGCCUUGCGCCGGGAAACCACGCAAGGGAUGGUGUCAAAUUCGGCGAAACCUAAGCGCCCGCCCGGGCGUAUGGCAACGCGGAGCCAAGCUUCGGCGCCUGCGCCGAUGCAGGUGUAGGGACUAGACGGCACCCACCUAAGGCUAACGAUAUGGUGAAGGCAUAGUCCAGGGAGAGGCGAAAGUCACACAAACCGG [C82G A111C A120G A145U C150A U176A], the reverse-splicing fitness amounted to 0.0121.

Take GUGCCUUGCGCCGGGAAACCACGCAAGGGAUGGUGUCAAAUUCGGCGAAACCUAAGCGCCCGCCCGGGCGUAUGGCAACGCGGAGCCAAGCUUCGGCGCCUGCGCCGAUGCAGGUGUAGGGACUAGACGGCACCCACCUAAGGCUAACGAUAUGGUGAAGGCAUAGUCCAGGGAGCGGCGAAAGUCACACAAACCGG [C82G A111C A120G A145U C150A U176C]: the reverse-splicing fitness worked out at 0.0172.

On to GUGCCUUGCGCCGGGAAACCACGCAAGGGAUGGUGUCAAAUUCGGCGAAACCUAAGCGCCCGCCCGGGCGUAUGGCAACGCGGAGCCAAGCUUCGGCGCCUGCGCCGAUGCAGGUGUAGGGACUAGACGGCACCCACCUAAGGCUAACGAUAUGGUGAAGGCAUAGUCCAGGGAGGGGCGAAAGUCACACAAACCGG [C82G A111C A120G A145U C150A U176G], for which the reverse-splicing fitness was 0.00582.

On to GUGCCUUGCGCCGGGAAACCACGCAAGGGAUGGUGUCAAAUUCGGCGAAACCUAAGCGCCCGCCCGGGCGUAUGGCAACGCGGAGCCAAGCUUCGGCGCCUGCGCCGAUGCAGGUGUAGGGACUAGACGGCACCCACCUAAGGCUAACGAUAUGGUGAAGGCAUAGUCUAGGGAGGGGCGAAAGUCACACAAACCGG [C82G A111C A120G A145U C150A C169U U176G], for which the reverse-splicing fitness amounted to 0.00547.

Regarding GUGCCUUGCGCCGGGAAACCACGCAAGGGAUGGUGUCAAAUUCGGCGAAACCUAAGCGCCCGCCCGGGCGUAUGGCAACGCGGAGCCAAGCUUCGGCGCCUGCGCCGAUGCAGGUGUAGGGACUAGACGGCACCCACCUAAGGCUAACGAUAUGGUGAAGGCAUAGUCUAGGGAGCGGCGAAAGUCACACAAACCGG [C82G A111C A120G A145U C150A C169U U176C], the reverse-splicing fitness was 0.0124.

For the variant GUGCCUUGCGCCGGGAAACCACGCAAGGGAUGGUGUCAAAUUCGGCGAAACCUAAGCGCCCGCCCGGGCGUAUGGCAACGCGGAGCCAAGCUUCGGCGCCUGCGCCGAUGCAGGUGUAGGGACUAGACGGCACCCACCUAAGGCUAACGAUAUGGUGAAGGCAUAGUCUAGGGAGAGGCGAAAGUCACACAAACCGG [C82G A111C A120G A145U C150A C169U U176A], the reverse-splicing fitness was 0.0169.

As for GUGCCUUGCGCCGGGAAACCACGCAAGGGAUGGUGUCAAAUUCGGCGAAACCUAAGCGCCCGCCCGGGCGUAUGGCAACGCGGAGCCAAGCUUCGGCGCCUGCGCCGAUGCAGGUGUAGGGACUAGACGGCACCCACCUAAGGCUAACGGUAUGGUGAAGGCAUAGUCCAGGGAGCGGCGAAAGUCACACAAACCGG [C82G A111C A120G A145U C150G U176C], the reverse-splicing fitness was found to be 0.015.

Regarding GUGCCUUGCGCCGGGAAACCACGCAAGGGAUGGUGUCAAAUUCGGCGAAACCUAAGCGCCCGCCCGGGCGUAUGGCAACGCGGAGCCAAGCUUCGGCGCCUGCGCCGAUGCAGGUGUAGGGACUAGACGGCACCCACCUAAGGCUAACGGUAUGGUGAAGGCAUAGUCCAGGGAGAGGCGAAAGUCACACAAACCGG [C82G A111C A120G A145U C150G U176A], the reverse-splicing fitness worked out at 0.00814.

For the variant GUGCCUUGCGCCGGGAAACCACGCAAGGGAUGGUGUCAAAUUCGGCGAAACCUAAGCGCCCGCCCGGGCGUAUGGCAACGCGGAGCCAAGCUUCGGCGCCUGCGCCGAUGCAGGUGUAGGGACUAGACGGCACCCACCUAAGGCUAACGGUAUGGUGAAGGCAUAGUCCAGGGAGGGGCGAAAGUCACACAAACCGG [C82G A111C A120G A145U C150G U176G], the reverse-splicing fitness was 0.00375.

The values above are taken from the RNAGym collection of RNA variant scans (doi:10.1093/molbev/msab373).
